Patent US8551493B2, “Peptide with reduced dimer formation” (Circassia Limited, priority 2007, dated 2013)
Where no end group is shown, it is not given here. [ ]: non-standard residue; d: D form. Abu = CC[C@H](N)C(=O)O

Legend:
[1] = Dimer formation of individual peptides and binary peptide mixtures, RP-HPLC; type: physicochemical
Procedure: The peptides used in this study have a minimum purity of >90%. The effectiveness of each additive to reduce dimer formation was assessed by size exclusion chromatography (SEC) and RP-HPLC. In SEC, molecules are separated based upon their apparent molecular weight. Smaller molecules can distribute into a greater proportion of the column matrix and are retained for longer than analytes of higher molecular weight. Dimers will elute from the column with an apparent molecular weight approximately twice that of the corresponding monomers. Separation by RP-HPLC separates species based on differences in their hydrophobicities. The amount of dimer formed is determined as a percentage of the total peak area ratio (% PAR) for the chromatogram.
Following the generation of data from the preliminary screening a further piece of work was undertaken to evaluate the ability of matrices containing Cysteine hydrochloride and 1-thioglycerol to inhibit the propensity of individual cysteine containing peptides and mixed pairs of these peptides to dimerize compared to the matrix alone. For each excipient mixtures of all the possible binary peptide combinations were prepared. […] The amount of dimer formed is determined as a percentage of the total peak area ratio (% PAR) for the chromatogram in each case.

PBMCs [2] = test: IL10 production assay in house dust mite allergic individuals (FIG. 1); type: cell-based, human; details: population of 34 house dust mite allergic individuals
Procedure: A typical cytokine release assay requires 40×10^6 PBMC's per subject. In more detail, 250 μl of a 200 μg/ml solution of the appropriate antigen or peptide concentration is distributed into the appropriate wells of 48 well plates. Plates are the incubated in a humidified 5% CO2 incubator at 37° C. for a maximum of 4 hours. 250 μl of a 5×10^6 cell/ml PBMC suspension is then added to each well and the plates returned to the incubator for 5 days. Following stimulation, samples of culture supernatant are harvested for testing by ELISA or multiplex bead assay according to standard protocols.

PBMCs [3] = test: Cytokine release assay (IFN-γ, IL-13) on PBMCs from house dust mite allergic individuals; type: cell-based, human; details: number of responders, N = 55 house dust mite allergic individuals; positive = at least 100 pg/ml of cytokine
From the text: The following Table presents results from a cytokine release assay performed on PBMCs taken from a population of house dust mite allergic individuals (N=number of individuals in population). A positive response is considered to be production of at least 100 pg/ml of cytokine.

PBMCs [4] = test: IFN-gamma production by PBMCs from ragweed allergic individuals (FIG. 2); type: cell-based, human; details: PBMCs from a population of ragweed allergic individuals
Procedure: Using methods equivalent to those in Example 2, these peptides were tested for the ability to induce cytokine production in PBMCs taken from a population of ragweed allergic individuals.

PBMCs [5] = test: IL-10 cytokine release assay on PBMCs from seven ragweed allergic individuals; type: cell-based, human; details: for IL-10: ragweed allergic, PBMC supernatant
From the text: The following Table presents results from a cytokine release assay performed on PBMCs taken from seven ragweed allergic individuals (A-G).

[6] = T = 0, Control matrix, individual peptide sample
[7] = T = 0, Control matrix, mixed sample MLA01 and MLA05
[8] = T = 1 week, 25° C./60% RH, Control matrix, individual peptide sample
[9] = T = 1 week, 25° C./60% RH, Control matrix, mixed sample MLA01 and MLA04
[10] = T = 1 week, 25° C./60% RH, Control matrix, mixed sample MLA01 and MLA05
[11] = T = 1 week, 25° C./60% RH, Control matrix, mixed sample MLA01 and MLA12
[12] = T = 1 week, 25° C./60% RH, Cysteine matrix, mixed sample MLA01 and MLA12
[13] = T = 72 h, Control matrix, individual peptide sample
[14] = T = 72 h, Control matrix, mixed sample MLA01 and MLA04
[15] = T = 72 h, Control matrix, mixed sample MLA01 and MLA05
[16] = T = 72 h, Control matrix, mixed sample MLA01 and MLA12
[17] = T = 1 week, 25° C./60% RH, Control matrix, mixed sample MLA04 and MLA05
[18] = T = 1 week, 25° C./60% RH, Control matrix, mixed sample MLA04 and MLA12
[19] = T = 72 h, Control matrix, mixed sample MLA04 and MLA05
[20] = T = 72 h, Control matrix, mixed sample MLA04 and MLA12
[21] = T = 1 week, 25° C./60% RH, Control matrix, mixed sample MLA05 and MLA12
[22] = T = 72 h, Control matrix, mixed sample MLA05 and MLA12

CPAVKRDVDLFLT (listed as Felis catus) [MLA01, derived from cat allergen Fel d1]
Percentage peak area ratio (% PAR), dimers formed [1, 6]: 3.85 % PAR | Percentage peak area ratio (% PAR), dimers formed ([1]; T = 0, Control matrix, mixed sample MLA01 and MLA04): 2.92 % PAR | Percentage peak area ratio (% PAR), dimers formed [1, 7]: 2.73 % PAR | Percentage peak area ratio (% PAR), dimers formed ([1]; T = 0, Control matrix, mixed sample MLA01 and MLA12): 2.7 % PAR | Percentage peak area ratio (% PAR), dimers formed ([1]; T = 0, Cysteine matrix, individual peptide sample): 0.49 % PAR | Percentage peak area ratio (% PAR), dimers formed ([1]; T = 0, Cysteine matrix, mixed sample MLA01 and MLA04): 0.48 % PAR | Percentage peak area ratio (% PAR), dimers formed ([1]; T = 0, Cysteine matrix, mixed sample MLA01 and MLA05): 0.73 % PAR | Percentage peak area ratio (% PAR), dimers formed ([1]; T = 0, Cysteine matrix, mixed sample MLA01 and MLA12): 0.2 % PAR | Percentage peak area ratio (% PAR), dimers formed [1, 8]: 66.81 % PAR | Percentage peak area ratio (% PAR), dimers formed [1, 9]: 39.49 % PAR | Percentage peak area ratio (% PAR), dimers formed [1, 10]: 45.59 % PAR | Percentage peak area ratio (% PAR), dimers formed [1, 11]: 40.03 % PAR | Percentage peak area ratio (% PAR), dimers formed ([1]; T = 1 week, 25° C./60% RH, Cysteine matrix, mixed sample MLA01 and MLA04): 0.52 % PAR | Percentage peak area ratio (% PAR), dimers formed ([1]; T = 1 week, 25° C./60% RH, Cysteine matrix, mixed sample MLA01 and MLA05): 0.26 % PAR | Percentage peak area ratio (% PAR), dimers formed [1, 12]: 0.23 % PAR | Percentage peak area ratio (% PAR), dimers formed [1, 13]: 43.81 % PAR | Percentage peak area ratio (% PAR), dimers formed [1, 14]: 35.47 % PAR | Percentage peak area ratio (% PAR), dimers formed [1, 15]: 41.11 % PAR | Percentage peak area ratio (% PAR), dimers formed [1, 16]: 29.62 % PAR

HDM203B: house dust mite Der p1 derived peptide of the HDM203 family tested for IL10 production (DLRQMRTVTPIRMQGGSGS; HDM203B* synthetic peptide)
IL10 production, engineered versus non-engineered peptides (PBMCs [2]): not significantly different

KALPVVLENARILKNCV (listed as Felis catus) [MLA04, derived from cat allergen Fel d1]
Percentage peak area ratio (% PAR), dimers formed [1, 8]: 4.76 % PAR | Percentage peak area ratio (% PAR), dimers formed [1, 9]: 2.71 % PAR | Percentage peak area ratio (% PAR), dimers formed [1, 17]: 2.32 % PAR | Percentage peak area ratio (% PAR), dimers formed [1, 18]: 2.42 % PAR | Percentage peak area ratio (% PAR), dimers formed [1, 13]: 2.51 % PAR | Percentage peak area ratio (% PAR), dimers formed [1, 14]: 1.32 % PAR | Percentage peak area ratio (% PAR), dimers formed [1, 19]: 0.91 % PAR | Percentage peak area ratio (% PAR), dimers formed [1, 20]: 0.44 % PAR

NAQRFGISNYBQI (NAQRFGISNY[Abu]QI) [HDM102B, B=2-aminobutyric acid]
Responders with IFN-g >100 (PBMCs [3]): 15 | Responders with IL-13 >100 (PBMCs [3]): 17

NAQRFGISNYCQI [HDM102]
Responders with IFN-g >100 (PBMCs [3]): 16 | Responders with IL-13 >100 (PBMCs [3]): 13

NAQRFGISNYSQI [HDM102A]
Responders with IFN-g >100 (PBMCs [3]): 14 | Responders with IL-13 >100 (PBMCs [3]): 16

NYBQIYPPNVNKIREA (NY[Abu]QIYPPNVNKIREA) [HDM101B, B=2-aminobutyric acid]
Responders with IFN-g >100 (PBMCs [3]): 1 | Responders with IL-13 >100 (PBMCs [3]): 2

NYCQIYPPNVNKIREA [HDM101]
Responders with IFN-g >100 (PBMCs [3]): 2 | Responders with IL-13 >100 (PBMCs [3]): 1

NYSQIYPPNVNKIREA [HDM101A]
Responders with IFN-g >100 (PBMCs [3]): 4 | Responders with IL-13 >100 (PBMCs [3]): 4

RFGISNYBQIYPPNVNK (RFGISNY[Abu]QIYPPNVNK) [HDM100B, B=2-aminobutyric acid]
Responders with IFN-g >100 (PBMCs [3]): 6 | Responders with IL-13 >100 (PBMCs [3]): 10

RFGISNYCQIYPPNVNK [HDM100]
Responders with IFN-g >100 (PBMCs [3]): 6 | Responders with IL-13 >100 (PBMCs [3]): 6

RFGISNYSQIYPPNVNK [HDM100A]
Responders with IFN-g >100 (PBMCs [3]): 10 | Responders with IL-13 >100 (PBMCs [3]): 8

RGW02: engineered (modified) peptide derived from ragweed pollen major allergen Amb a 1 (GSSQIWIDHSSLSKS; RGW02* synthetic peptide)
IFN-gamma production compared with the non-engineered peptide (PBMCs [4]): does not induce significantly different responses | IL-10 (PBMCs [5]; Subject A): 248.91 pg/mL | IL-10 (PBMCs [5]; Subject B): 227.18 pg/mL | IL-10 (PBMCs [5]; Subject C): 452.45 pg/mL | IL-10 (PBMCs [5]; Subject D): 80.54 pg/mL | IL-10 (PBMCs [5]; Subject E): 310.34 pg/mL | IL-10 (PBMCs [5]; Subject F): 203.12 pg/mL | IL-10 (PBMCs [5]; Subject G): 283.75 pg/mL | level of production of IL-10 compared with the original peptide (RGW02A) (PBMCs [5]; seven ragweed allergic individuals (A-G)): not significantly different

RILKNCVDAKMTEEDKE (listed as Felis catus) [MLA05, derived from cat allergen Fel d1]
Percentage peak area ratio (% PAR), dimers formed [1, 6]: 0.55 % PAR | Percentage peak area ratio (% PAR), dimers formed [1, 7]: 0.35 % PAR | Percentage peak area ratio (% PAR), dimers formed [1, 8]: 1.65 % PAR | Percentage peak area ratio (% PAR), dimers formed [1, 10]: 3.18 % PAR | Percentage peak area ratio (% PAR), dimers formed [1, 17]: 3.26 % PAR | Percentage peak area ratio (% PAR), dimers formed [1, 21]: 1.85 % PAR | Percentage peak area ratio (% PAR), dimers formed ([1]; T = 1 week, 25° C./60% RH, Cysteine matrix, individual peptide sample): 0.21 % PAR | Percentage peak area ratio (% PAR), dimers formed [1, 13]: 1.99 % PAR | Percentage peak area ratio (% PAR), dimers formed [1, 15]: 2.21 % PAR | Percentage peak area ratio (% PAR), dimers formed [1, 19]: 2.25 % PAR | Percentage peak area ratio (% PAR), dimers formed [1, 22]: 8.17 % PAR

TAMKKIQDCYVENGLI (listed as Felis catus) [MLA12, derived from cat allergen Fel d1]
Percentage peak area ratio (% PAR), dimers formed [1, 8]: 1.72 % PAR | Percentage peak area ratio (% PAR), dimers formed [1, 11]: 3.43 % PAR | Percentage peak area ratio (% PAR), dimers formed [1, 18]: 2.13 % PAR | Percentage peak area ratio (% PAR), dimers formed [1, 21]: 1.28 % PAR | Percentage peak area ratio (% PAR), dimers formed [1, 12]: 0.18 % PAR | Percentage peak area ratio (% PAR), dimers formed ([1]; T = 1 week, 25° C./60% RH, Cysteine matrix, mixed sample MLA04 and MLA12): 0.32 % PAR | Percentage peak area ratio (% PAR), dimers formed [1, 13]: 0.46 % PAR | Percentage peak area ratio (% PAR), dimers formed [1, 16]: 2.09 % PAR | Percentage peak area ratio (% PAR), dimers formed [1, 20]: 1.1 % PAR | Percentage peak area ratio (% PAR), dimers formed [1, 22]: 9.78 % PAR | Percentage peak area ratio (% PAR), dimers formed ([1]; T = 72 h, Cysteine matrix, mixed sample MLA01 and MLA12): 0.1 % PAR | Percentage peak area ratio (% PAR), dimers formed ([1]; T = 72 h, Cysteine matrix, mixed sample MLA04 and MLA12): 0.33 % PAR
